How the values were obtained:
GST-SRSF1 [1] = molecular target: T1, GST-SRSF1 (human, UniProt Q07955 1-248); experiment: competition; EMSA vs IRD-800 miR-1246; did not alter binding; EMSA: 40 mM Tris pH 8.0, 30 mM KCl, 1 mM MgCl2, 0.001% NP40, 1 mM DTT, 5% glycerol, room temperature 40 min, 4% native gel; conditions: protein: recombinant; tags: N-terminal GST (pGEX6P); no self-complementarity
GST-SRSF1 [2] = molecular target: T1, GST-SRSF1; experiment: competition; EMSA vs IRD-800 miR-1246; concentration-dependent; dissociation constant only in Fig. 6f; EMSA: 40 mM Tris pH 8.0, 30 mM KCl, 1 mM MgCl2, 0.001% NP40, 1 mM DTT, 5% glycerol, room temperature 40 min, 4% native gel; conditions: protein: recombinant; tags: N-terminal GST (pGEX6P); no self-complementarity

T1 sequence (Q07955 whole entry): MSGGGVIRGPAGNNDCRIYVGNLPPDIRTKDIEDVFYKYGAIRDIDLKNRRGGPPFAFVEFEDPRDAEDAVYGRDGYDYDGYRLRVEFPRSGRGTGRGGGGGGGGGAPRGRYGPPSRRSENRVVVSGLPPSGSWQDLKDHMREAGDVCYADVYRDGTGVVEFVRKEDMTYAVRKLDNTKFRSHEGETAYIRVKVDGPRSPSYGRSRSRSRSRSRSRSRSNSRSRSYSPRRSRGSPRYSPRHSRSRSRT

Binder | binding result (GST-SRSF1 [1]) | binding result (GST-SRSF1 [2])
UUGGACUAGGACUAGGAU (ssRNA) [Decoy mimic 1 (D1)] | no binding | 
AGGAAGGAAGGAAGGA (ssRNA) [Decoy mimic 2 (D2)] |  | binds
